The target in assay [1] is T1, human CD3 complex on Jurkat cells (human, UniProt P07766 23-207; P04234 22-171; P09693 23-182; P20963 22-164).
T1 construct: whole, on cells; Endogenous CD3 complex of Jurkat / JURKAT-NFAT-Luc cells; also called human Jurkat T cells; CD3 on the surface of JURKAT-NFAT-Luc cells
Put plainly: FACS on Jurkat cells, PE goat anti-human IgG (H+L) secondary antibody, MFI. The method, then:
(§1) The cells were re-suspended in PBS, counted, and centrifuged again to remove the supernatants. The cells were re-suspended in 2% FBS-PBS, to adjust the cell concentration to 4×10⁶/ml. Each kind of cells were added to 96-well U-bottom plates, 50 μl/well. The antibodies were diluted in 2% FBS-PBS, 5-fold serial dilution starting at 40 μg/ml, obtaining 12 concentrations in total. The 96-well plates were added with 50 μl antibody dilution, mixed well, and incubated at room temperature for 1 h. The plates were washed by 2% FBS-PBS, 200 μl/well, for three times. The plates were added with PE labelled goat-anti-human IgG (H+L) secondary antibody (1:500 diluted), 50 μl/well, and incubated at room temperature for 45 min. The plates were washed by 2% FBS-PBS, 200 μl/well, for three times. Finally the plates were added with 150 μl 2% FBS-PBS to re-suspend the cells, and the cells were tested in a flow cytometer. The data was processed in FlowJo and analyzed in GraphPad.

Assay [2] concerns the target T2, human GPRC5D antigen (Cat #:HM05P, Kactus Biosystems) (human, UniProt Q9NZD1 1-345, limits assumed).
T2 construct: Bought antigen used as SPR analyte
Put plainly: SPR (BIAcore 8K), antibody captured by anti-human Fc on CM5 chip, antigen as analyte. The method, then: (§2) The mouse anti-human Fe antibody (Cat #:BR100839, cytiva) was coupled to the surface of a CM5 chip. The antibody to be tested was diluted to 1 μg/ml with the HBS-EP buffer (Cat #:BR-1006-69, GE Life Sciences), to ensure about 100 RU of the antibody was captured by the anti-human Fe antibody. The human BCMA antigen (Cat #:BCA-H522y, ACRO), human CD3D&E protein (Cat #: CT038-H2508H, Sino biological), and human GPRC5D antigen (Cat #:HM05P, Kactus Biosystems) were diluted with HBS-EP buffer to […], respectively. Each protein at different concentrations was flowed through the surface of the stationary phase. Chips were regenerated by 3 M MgCl₂ solution. The kinetics assay was run with the Kinetics Wizard in BIAcore 8K's control software. […] The data was fitted in BIAcore 8K's evaluation software, and KD values of the test antibodies to the above antigens were determined and summarized in Table 1.

Assay [3] concerns the target T3, human BCMA antigen (Cat #:BCA-H522y, ACRO) (human, UniProt Q02223 1-54).
T3 construct: Bought recombinant protein used as SPR analyte
T3 sequence: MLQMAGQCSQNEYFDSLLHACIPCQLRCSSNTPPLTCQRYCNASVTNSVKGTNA
The assay is described as above. The method, then: as §2

The target of assay [4] is T4, human CD3D&E protein (Cat #: CT038-H2508H, Sino biological) (human, UniProt P04234 22-105; P07766 23-126).
T4 construct: Bought recombinant delta/epsilon complex used as SPR analyte; also called CD3D&E complex
The description is as above. The method, then:
as §2

In assay [5] the target is T5, monkey GPRC5D expressed on HEK293T cells (monkey, UniProt Q9NZD1 1-298 (human entry)).
T5 construct: also called HEK293T/monkey GPRC5D cells
T5 chain: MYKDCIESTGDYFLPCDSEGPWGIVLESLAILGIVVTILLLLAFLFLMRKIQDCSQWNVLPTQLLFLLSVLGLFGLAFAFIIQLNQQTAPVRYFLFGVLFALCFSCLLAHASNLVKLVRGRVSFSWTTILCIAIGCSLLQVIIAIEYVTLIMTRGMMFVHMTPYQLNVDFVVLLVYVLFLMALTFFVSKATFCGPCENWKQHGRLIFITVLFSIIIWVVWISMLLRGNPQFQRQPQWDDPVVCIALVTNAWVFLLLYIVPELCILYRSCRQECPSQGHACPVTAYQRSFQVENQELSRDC
The assay is described as follows: FACS on HEK293T/monkey GPRC5D cells, PE goat anti-human IgG (H+L) secondary antibody, MFI. On the procedure:
as §1

The target in assay [6] is T6, human GPRC5D expressed on HEK293T cells (human, UniProt Q9NZD1 1-345).
T6 construct: also called HEK293T/human GPRC5D cells
Put plainly: FACS on HEK293T/human GPRC5D cells, PE goat anti-human IgG (H+L) secondary antibody, MFI. The method, then:
as §1

Assay [7] deals with T7, human BCMA expressed on HEK293A cells (human, UniProt Q02223 1-184).
T7 construct: also called HEK293A/human BCMA cells
T7 sequence: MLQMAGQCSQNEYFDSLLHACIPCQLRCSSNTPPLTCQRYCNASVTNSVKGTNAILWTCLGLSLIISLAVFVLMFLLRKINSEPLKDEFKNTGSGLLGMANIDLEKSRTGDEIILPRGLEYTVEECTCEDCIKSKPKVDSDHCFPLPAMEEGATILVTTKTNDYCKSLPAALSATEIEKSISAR
The assay is described as follows: FACS on HEK293A/human BCMA cells, PE goat anti-human IgG (H+L) secondary antibody, MFI. On the procedure:
as §1

Assay [8] deals with T8, mouse BCMA expressed on HEK293A cells (mouse, UniProt O88472 1-185).
T8 construct: also called HEK293A/mouse BCMA cells
T8 sequence: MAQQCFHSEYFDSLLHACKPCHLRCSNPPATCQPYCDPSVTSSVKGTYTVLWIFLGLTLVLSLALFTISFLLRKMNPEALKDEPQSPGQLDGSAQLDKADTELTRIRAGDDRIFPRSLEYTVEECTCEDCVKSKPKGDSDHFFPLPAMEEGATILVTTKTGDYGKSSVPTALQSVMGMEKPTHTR
Put plainly: FACS on HEK293A/mouse BCMA cells, PE goat anti-human IgG (H+L) secondary antibody, MFI. The method, then:
as §1

The target of assay [9] is T9, monkey BCMA expressed on HEK293A cells (monkey, UniProt Q02223 1-184 (human entry)).
T9 construct: also called HEK293A/monkey BCMA cells
Put plainly: FACS on HEK293A/monkey BCMA cells, PE goat anti-human IgG (H+L) secondary antibody, MFI. The method, then:
as §1

T2 sequence (Q9NZD1 whole entry): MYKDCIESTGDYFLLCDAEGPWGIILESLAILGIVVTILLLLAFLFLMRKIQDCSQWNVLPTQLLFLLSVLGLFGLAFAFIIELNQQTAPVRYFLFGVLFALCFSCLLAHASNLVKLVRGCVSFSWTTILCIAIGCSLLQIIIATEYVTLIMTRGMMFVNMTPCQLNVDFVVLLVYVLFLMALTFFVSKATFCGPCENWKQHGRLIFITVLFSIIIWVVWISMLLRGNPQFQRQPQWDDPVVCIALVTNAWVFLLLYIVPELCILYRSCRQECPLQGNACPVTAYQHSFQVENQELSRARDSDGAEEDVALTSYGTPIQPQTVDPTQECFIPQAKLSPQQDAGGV
T4 sequence (P04234 22-105, chain 1 of 2): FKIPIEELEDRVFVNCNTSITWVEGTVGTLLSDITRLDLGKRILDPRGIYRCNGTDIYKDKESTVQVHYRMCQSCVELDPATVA
T4 sequence (P07766 23-126, chain 2 of 2): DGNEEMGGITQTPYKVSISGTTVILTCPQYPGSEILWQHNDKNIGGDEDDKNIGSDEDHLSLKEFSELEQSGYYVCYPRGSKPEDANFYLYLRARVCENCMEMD
T1 sequence (P07766 23-207, chain 1 of 4): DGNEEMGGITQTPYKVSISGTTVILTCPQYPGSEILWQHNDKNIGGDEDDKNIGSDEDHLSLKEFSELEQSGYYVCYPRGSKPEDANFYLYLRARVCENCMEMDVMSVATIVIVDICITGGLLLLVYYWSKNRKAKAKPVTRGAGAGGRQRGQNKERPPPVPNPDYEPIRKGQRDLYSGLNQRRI
T1 sequence (P04234 22-171, chain 2 of 4): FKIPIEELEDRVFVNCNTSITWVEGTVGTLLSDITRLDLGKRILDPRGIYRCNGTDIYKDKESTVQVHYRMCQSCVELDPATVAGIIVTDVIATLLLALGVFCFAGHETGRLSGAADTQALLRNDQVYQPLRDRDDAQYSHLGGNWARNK
T1 sequence (P09693 23-182, chain 3 of 4): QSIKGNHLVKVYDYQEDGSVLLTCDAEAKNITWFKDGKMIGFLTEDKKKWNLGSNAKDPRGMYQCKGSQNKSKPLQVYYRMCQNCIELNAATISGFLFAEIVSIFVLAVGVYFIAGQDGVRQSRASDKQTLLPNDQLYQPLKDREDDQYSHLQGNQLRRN
T1 sequence (P20963 22-164, chain 4 of 4): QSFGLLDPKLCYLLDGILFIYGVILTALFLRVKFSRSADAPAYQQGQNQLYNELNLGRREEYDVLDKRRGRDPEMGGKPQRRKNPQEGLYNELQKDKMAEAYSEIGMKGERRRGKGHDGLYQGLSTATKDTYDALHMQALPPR
T6 sequence (Q9NZD1 whole entry): as the sequence (Q9NZD1 whole entry) above
T9 sequence (Q02223 other isoform, or with tags, fused parts or gaps): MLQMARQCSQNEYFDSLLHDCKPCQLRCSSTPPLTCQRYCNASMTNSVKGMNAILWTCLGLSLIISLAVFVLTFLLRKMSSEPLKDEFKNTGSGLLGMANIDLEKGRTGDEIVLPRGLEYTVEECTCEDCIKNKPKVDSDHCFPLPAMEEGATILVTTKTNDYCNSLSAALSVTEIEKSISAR

B1: JNJ-64407564 (bi-specific GPRC5D×CD3 antibody) (bispecific antibody)
chain 1: QVQLVQSGAEVKKPGASVKVSCKASGYSFTGYTMNWVRQAPGQGLEWMGLINPYNSDTNYAQKLQGRVTMTTDTSTSTAYMELRSLRSDDTAVYYCARVALRVALDYWGQGTLVTVSS
chain 2: DIQMTQSPSSLSASVGDRVTITCKASQNVATHVGWYQQKPGKAPKRLIYSASYRYSGVPSRFSGSGSGTEFTLTISNLQPEDFATYYCQQYNRYPYTFGQGTKLEIK
chain 3: EVQLVESGGGLVQPGGSLRLSCAASGFTFNTYAMNWVRQAPGKGLEWVARIRSKYNNYATYYAASVKGRFTISRDDSKNSLYLQMNSLKTEDTAVYYCARHGNFGNSYVSWFAYWGQGTLVTVSS
chain 4: QTVVTQEPSLTVSPGGTVTLTCRSSTGAVTTSNYANWVQQKPGQAPRGLIGGTNKRAPGTPARFSGSLLGGKAALTLSGVQPEDEAEYYCALWYSNLWVFGGGTKLTVL
By EC50 (read off the curve) is commonly meant the concentration needed to bring the measured effect to its halfway point. As for B1, in assay [1], the “EC50 (read off the curve)” value is roughly 0.06 µg/mL.

B2: MBS314 (tri-specific GPRC5D×BCMA×CD3 antibody) (other)
heavy 1: QVQLVQSGAEVKKPGASVKVSCKASGYTFTNHIIHWVRQAPGQGLEWMGYINPYPGYHGYNDKFSGRATMTSDTSTSTVYMELSSLRSEDTAVYYCARDGYYRDQDVLDYWGQGTLVTVSSGGGGSGGGGSGGGGSGGGGSDIQMTQSPSSLSASVGDRVTITCKASQDISQYLNWYQQKPGKAPKLLIYYTSGLHPGVPSRFSGSGSGTDFTFTISSLEPEDEATYYCQQGYALPWTFGQGTKLTAKGGGGSGGGGSGGGGSEVQLVESGGGLVQPGRSLRLSCAASGFTFDDFAMHWVRQAPGKGLEWVSGITWNSGSVGYADSVKGRFTISRDNAKKSLYLQMNSLRAEDTALYYCAKDRSGYGHYYYGMDVWGQGTTVTVASASTKGPSVFPLAPSSKSTSGGTAALGCLVKDYFPEPVTVSWNSGALTSGVHTFPAVLQSSGLYSLSSVVTVPSSSLGTQTYICNVNHKPSNTKVDKKVEPKSCDKTHTCPPCPAPEAAGGPSVFLFPPKPKDTLMISRTPEVTCVVVDVSHEDPEVKFNWYVDGVEVHNAKTKPREEQYASTYRVVSVLTVLHQDWLNGKEYKCKVSNKALPAPIEKTISKAKGQPREPQVYTLPPSREEMTKNQVSLWCLVKGFYPSDIAVEWESNGQPENNYKTTPPVLDSDGSFFLYSKLTVDKSRWQQGNVFSCSVMHEALHNHYTQKSLSLSPGK
light 1: not shown
heavy 2: QVQLQESGPGLVKPSETLSLTCTVSGYSITSDYAWNWIRQPPGKGLEWMGYISYSGSATYSPSLKSRITISRDTSKNQFSLKLSSVTAADTAVYYCARGGIAGRGRWGAMDYWGQGTTVTVSSASTKGPSVFPLAPSSKSTSGGTAALGCLVKDYFPEPVTVSWNSGALTSGVHTFPAVLQSSGLYSLSSVVTVPSSSLGTQTYICNVNHKPSNTKVDKKVEPKSCDKTHTCPPCPAPEAAGGPSVFLFPPKPKDTLMISRTPEVTCVVVDVSHEDPEVKFNWYVDGVEVHNAKTKPREEQYASTYRVVSVLTVLHQDWLNGKEYKCKVSNKALPAPIEKTISKAKGQPREPQVYTLPPSREEMTKNQVSLSCAVKGFYPSDIAVEWESNGQPENNYKTTPPVLDSDGSFFLVSKLTVDKSRWQQGNVFSCSVMHEALHNHYTQKSLSLSPGK
light 2: DIQMTQSPSSLSASVGDRVTITCKASQNVGTNVAWYQQKPGQSPKALIYSASYRDSGVPDRFSGSGSGTDFTLTISSLQPEDFATYYCQQYKSYPLTFGQGTRLEIKRTVAAPSVFIFPPSDEQLKSGTASVVCLLNNFYPREAKVQWKVDNALQSGNSQESVTEQDSKDSTYSLSSTLTLSKADYEKHKVYACEVTHQGLSSPVTKSFNRGEC
notes: also called antibody MBS314; tri-specific CD3×BCMA×GPRC5D antibody
What is called Kd is the free concentration of one partner at which half of the binding sites on the other are occupied at equilibrium, for simple one-to-one binding. In general, koff refers to a measure of how fast the partners let go of each other. The term kon denotes a measure of how fast the partners come together. Turning to B2, the figures for the Kd in [2], in assay [3] and in assay [4] were 3.53 nM, 0.441 nM and 249 nM, respectively. The koff was determined as 0.00174 s⁻¹ in assay [2], 0.000283 s⁻¹ in [3] and 0.00774 s⁻¹ in [4]. Besides, the results for the kon in [2], in assay [3] and in assay [4] were 493000 M⁻¹ s⁻¹, 642000 M⁻¹ s⁻¹ and 31100 M⁻¹ s⁻¹, respectively. The binding result in [1] is “binds”; in [8], “no binding”. Further, the “EC50 (read off the curve)” value in assay [5] is roughly 0.4 µg/mL; in assay [6] it was roughly 0.4 µg/mL; in [7], roughly 1 µg/mL; in [9], roughly 0.8 µg/mL.

Values taken from US20260078195A1 (BEIJING MABWORKS BIOTECH, published 2026).
